{
  "source": "the supplement of paper PMC12764529",
  "note": "± gives the half width of the 95% confidence interval.",
  "data": [
    {"assay": "folding stability dG unfold from chymotrypsin proteolysis; higher = more stable", "summary_of_the_method": "(§1)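 Bayesian fitting of sequencing counts gave K50 for each design. Unfolding free energy followed by setting this against a sequence-predicted unfolded-state K50 and a shared folded-state K50, either per protease or with trypsin and chymotrypsin combined. The designs, under 80 residues and lacking cysteine, were digested in a PA-tagged cDNA display format at 11 threefold-diluted protease concentrations and without protease, and only those with AlphaFold2 dimer inter-PAE above 15 were kept.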", "units": {"folding stability dG unfold": "kcal/mol"}, "values": [
      {"sequence": "SAGGSAIKLPSGVKIEFKKTEDGKYIVRVTLPDGKPIELEFEGDPEGPNNITPEEINDAILEKIKSSAGGSA [r15_780_TrMRF]", "folding stability dG unfold": "3.23 ± 0.056"},
      {"sequence": "SAGGSANGYFILIKIEEIKLTKMRRDPDGKQWQWNFSVKIKIEVVKVFRIKPDPNGNWKIEPGDPISAGGSA [r15_162_TrROS]", "folding stability dG unfold": "3.33 ± 0.053"},
      {"sequence": "SAGGKKETVKVTLEIEVNGKKYKIELTKNKDGTVTIKITDKNGKKIEIEIPMSPEDVKKLLEELLKKLSAGG [r13_296_TrROS_Hall]", "folding stability dG unfold": "3.93 ± 0.094"},
      {"sequence": "SAGGSAGGMKITKIESVEPNPENGMVSLEMKIENGASILIHYNPDNGKVTIMVFKPNEIEPIELSAGGSAGG [r6_796_TrROS]", "folding stability dG unfold": "1.91 ± 0.072"},
      {"sequence": "SAKVYRTKDGKEVKVEKKKVKVKTIEIEIEIEMPKELEEKVKKLAEELAKKLAEELNLPPGAKIKITVRSAG [r14_453_TrROS_Hall]", "folding stability dG unfold": "2.04 ± 0.051"},
      {"sequence": "SAGTVTIGIWIPADDIEQIKELIRSIAEEHGWEVKVDKIEPNPDGQYFVTVTVENPENGKEIKITIWIPSAG [r5_41_TrROS]", "folding stability dG unfold": "3.39 ± 0.044"},
      {"sequence": "SAGGSAGGSAGYKPGEVVYIEVEDPETGKSLKVPVKVPENMTPEQAKKLAEEAAKKYREGSAGGSAGGSAGG [r11_355_TrMRF]", "folding stability dG unfold": "2.22 ± 0.095"},
      {"sequence": "SAGGSAGGSAMIEISEEELEKLLAETPEEEAKEVKIERIPDIGLINVTIPSGKVIKVKIKESAGGSAGGSAG [r3_291_JUSTAS]", "folding stability dG unfold": "1.43 ± 0.077"},
      {"sequence": "SAGGEKITIEVDGKKVTITKNEDGTITITIEHNGKVIKTITLPKNLEKITELTLTFNGKTYTITIEPSAGGS [r16_452_TrROS_Hall]", "folding stability dG unfold": "5.013 ± 0.048"},
      {"sequence": "SAGGSAGGSAGGSVSVNIPLEELKERVPPSLSVSVSPTPVPEGGGVRVPVTLTSPAELGSAGGSAGGSAGGS [r4_119_JUSTAS]", "folding stability dG unfold": "0.471 ± 0.025"},
      {"sequence": "SAGGSAGGSMKVEIKFPDGSVKTIPLSPEEPDVPPEALVKELGADNVTITYYTPDGVPINLGISAGGSAGGS [r12_411_JUSTAS]", "folding stability dG unfold": "0.916 ± 0.03"},
      {"sequence": "SAGGKKKKKKPKIVRVKITLKNENGEEIEIDEAVILPDGTILIRDKKTGKIFEIKLDDITKIEIEEVSAGGS [r8_410_TrROS_Hall]", "folding stability dG unfold": "3.02 ± 0.098"},
      {"sequence": "SAGGSAGGSAGGLLEIELPSRRILVELKLELKDGKLVKLEIKVKYEGREPEPLTSPEYKSAGGSAGGSAGGS [r10_1043_TrMRF]", "folding stability dG unfold": "1.94 ± 0.17"},
      {"sequence": "SAGGSAGGSAGGSPLVIKVDGPAEKLIEEIKKLFPNAKVLSIETHPDGGVTLVVEKIDESAGGSAGGSAGGS [r4_95_TrMRF]", "folding stability dG unfold": "2.35 ± 0.069"},
      {"sequence": "SQWVIKIKFPNPDGEPVKIIFPVEEIQEIFKEEHGEPSSPQEFADRLAKHHPNVDVEIMPLDDMPPEQLNSA [r9_1085_TrROS]", "folding stability dG unfold": "0.42 ± 0.21"},
      {"sequence": "SAGGEMTAEERARRLAERLAEELERRTGRKVEVVSVEVEYDPETDEVTVRIEIRLEDGSTLTIELRLSAGGS [r8_372_TrROS_Hall]", "folding stability dG unfold": "3.41 ± 0.11"},
      {"sequence": "SAGMDVKELAKEAMEKYPPGDKEIEFEIPVGPRPFKVKIDYEPDPENGKPRPKITIENPDNGKKTEFTFSAG [r5_236_TrROS]", "folding stability dG unfold": "0.61 ± 0.19"},
      {"sequence": "SAGGSAGGSAKPVLEVEITVEVNGKLYKVRARVELEETPDGLVLKVEVELENGEKFEFTLKLSAGGSAGGSA [r18_54_TrROS_Hall]", "folding stability dG unfold": "5.13 ± 0.21"},
      {"sequence": "SAPLDPDQAKEQAENIADYFQDEMQDQFGMDPSDIDVDVKVEQEPNGHYRITVEITMGNMPIEMEIYVPSAG [r14_226_TrROS]", "folding stability dG unfold": "2.1 ± 0.049"},
      {"sequence": "SKKIKIILRYPDGWYVKAEMEVPNGKERDIWFPNPEEAIEWAKTIARQFNPGVEIEDIETVPPDDLPPNFSA [r9_137_TrROS]", "folding stability dG unfold": "1.86 ± 0.077"},
      {"sequence": "SGREEEIAEELREKLLAEGYTEVEVEIEVRPDPNSDNVLVTVTVRATKKDAEGNWKTYEETIPVLIPAEASA [r9_440_JUSTAS]", "folding stability dG unfold": "3.23 ± 0.15"},
      {"sequence": "SAGGSAGGSKEVKTIKVEITITDKNGKKITVKAEIVYDKKTKKYYIKIRNKKTNKTYIIELKLSAGGSAGGS [r20_71_TrROS_Hall]", "folding stability dG unfold": "4.753 ± 0.047"},
      {"sequence": "SAMKPFPAKEAIEQILEEMEDMPLPPGQEEVEFQIRLPDDGAPVQISIERNPGKWKIEIYVGNKPIWITSAG [r14_199_TrROS]", "folding stability dG unfold": "2.43 ± 0.14"},
      {"sequence": "SMKIVIVKNKDGTVIVRITFPNGEEITITAKTEEEAKKAIEELIKKLQEKYNIKIKIEVKPVKPGEVIEESA [r9_786_TrROS_Hall]", "folding stability dG unfold": "2.84 ± 0.08"},
      {"sequence": "SAGGSAGGSAGGMTPIEVTVELEEPTRRTTRRFTFTSPEEVEAYLKALPASWRVTRVELRSAGGSAGGSAGG [r17_410_JUSTAS]", "folding stability dG unfold": "1.82 ± 0.15"},
      {"sequence": "SAGGSAGGSASMTVRATLPNGEEIEFEADVIKADPGGDSVTVYLILPNGGEIPFEVELEEEESAGGSAGGSA [r18_163_TrMRF]", "folding stability dG unfold": "0.706 ± 0.19"},
      {"sequence": "SAEVRTVTDANGTQRTVTKTPDGTETVTTRPVPAPPPPPTVTVEVEYDAENGTLTVRLPDGSKLEFTFEDSA [r9_56_TrROS_Hall]", "folding stability dG unfold": "0.982 ± 0.046"},
      {"sequence": "SAGGMKTIEITIKTEDGYTIKIKITEKDGKLYIEIEIEDPNMSEEQREKIKKEIEELAKKLNIKVEIPSAGG [r13_774_TrROS_Hall]", "folding stability dG unfold": "2.8 ± 0.27"},
      {"sequence": "SAGGGSTTTYSIPEGPLTLEVTTVTVGDGTVKKTVVTTPEGKRTEIPPSNPITIPPNWTVTSSVTLTSAGGS [r16_669_JUSTAS]", "folding stability dG unfold": "0.0533 ± 0.16"},
      {"sequence": "SAGGSAGGSMLVLHLPNGKEIPIPPGEFSEDTGVEDIAARIPPEVRRLRIYNEDGTEVEVPIDSAGGSAGGS [r20_161_TrMRF]", "folding stability dG unfold": "0.479 ± 0.39"},
      {"sequence": "SAGGEVKVEIEVELNEDGTLRVRARVEVRVDGELVTVEVEIEVRLEPAPPPAPPPVLVVDPETGEILSAGGS [r8_269_TrROS_Hall]", "folding stability dG unfold": "1.94 ± 0.11"}
    ]},
    {"assay": "folding stability dG unfold (combined trypsin and chymotrypsin); higher = more stable", "summary_of_the_method": "as §1", "units": {"folding stability dG unfold": "kcal/mol"}, "values": [
      {"sequence": "SAGGSAIKLPSGVKIEFKKTEDGKYIVRVTLPDGKPIELEFEGDPEGPNNITPEEINDAILEKIKSSAGGSA [r15_780_TrMRF]", "folding stability dG unfold": "3.06 ± 0.081"},
      {"sequence": "SAGGSANGYFILIKIEEIKLTKMRRDPDGKQWQWNFSVKIKIEVVKVFRIKPDPNGNWKIEPGDPISAGGSA [r15_162_TrROS]", "folding stability dG unfold": "3.25 ± 0.12"},
      {"sequence": "SAGGKKETVKVTLEIEVNGKKYKIELTKNKDGTVTIKITDKNGKKIEIEIPMSPEDVKKLLEELLKKLSAGG [r13_296_TrROS_Hall]", "folding stability dG unfold": "3.56 ± 0.076"},
      {"sequence": "SAGGSAGGMKITKIESVEPNPENGMVSLEMKIENGASILIHYNPDNGKVTIMVFKPNEIEPIELSAGGSAGG [r6_796_TrROS]", "folding stability dG unfold": "1.76 ± 0.089"},
      {"sequence": "SAKVYRTKDGKEVKVEKKKVKVKTIEIEIEIEMPKELEEKVKKLAEELAKKLAEELNLPPGAKIKITVRSAG [r14_453_TrROS_Hall]", "folding stability dG unfold": "2.34 ± 0.17"},
      {"sequence": "SAGTVTIGIWIPADDIEQIKELIRSIAEEHGWEVKVDKIEPNPDGQYFVTVTVENPENGKEIKITIWIPSAG [r5_41_TrROS]", "folding stability dG unfold": "3.25 ± 0.11"},
      {"sequence": "SAGGSAGGSAGYKPGEVVYIEVEDPETGKSLKVPVKVPENMTPEQAKKLAEEAAKKYREGSAGGSAGGSAGG [r11_355_TrMRF]", "folding stability dG unfold": "2.02 ± 0.16"},
      {"sequence": "SAGGSAGGSAMIEISEEELEKLLAETPEEEAKEVKIERIPDIGLINVTIPSGKVIKVKIKESAGGSAGGSAG [r3_291_JUSTAS]", "folding stability dG unfold": "0.911 ± 0.086"},
      {"sequence": "SAGGEKITIEVDGKKVTITKNEDGTITITIEHNGKVIKTITLPKNLEKITELTLTFNGKTYTITIEPSAGGS [r16_452_TrROS_Hall]", "folding stability dG unfold": "4.97 ± 0.11"},
      {"sequence": "SAGGSAGGSAGGSVSVNIPLEELKERVPPSLSVSVSPTPVPEGGGVRVPVTLTSPAELGSAGGSAGGSAGGS [r4_119_JUSTAS]", "folding stability dG unfold": "0.763 ± 0.041"},
      {"sequence": "SAGGSAGGSMKVEIKFPDGSVKTIPLSPEEPDVPPEALVKELGADNVTITYYTPDGVPINLGISAGGSAGGS [r12_411_JUSTAS]", "folding stability dG unfold": "0.706 ± 0.053"},
      {"sequence": "SAGGKKKKKKPKIVRVKITLKNENGEEIEIDEAVILPDGTILIRDKKTGKIFEIKLDDITKIEIEEVSAGGS [r8_410_TrROS_Hall]", "folding stability dG unfold": "2.8 ± 0.17"},
      {"sequence": "SAGGSAGGSAGGLLEIELPSRRILVELKLELKDGKLVKLEIKVKYEGREPEPLTSPEYKSAGGSAGGSAGGS [r10_1043_TrMRF]", "folding stability dG unfold": "1.76 ± 0.44"},
      {"sequence": "SAGGSAGGSAGGSPLVIKVDGPAEKLIEEIKKLFPNAKVLSIETHPDGGVTLVVEKIDESAGGSAGGSAGGS [r4_95_TrMRF]", "folding stability dG unfold": "2.03 ± 0.15"},
      {"sequence": "SQWVIKIKFPNPDGEPVKIIFPVEEIQEIFKEEHGEPSSPQEFADRLAKHHPNVDVEIMPLDDMPPEQLNSA [r9_1085_TrROS]", "folding stability dG unfold": "-0.0736 ± 0.34"}
    ]}
  ]
}
